According to paper PMC8498969, “An Integrated Systems Biology Approach Identifies the Proteasome as A Critical Host Machinery for ZIKV and DENV Replication” (Genomics, Proteomics & Bioinformatics, 2021):

How the values were obtained:
[1] = target: T1, DDX49 on the HuProt array (human, UniProt Q9Y6V7 1-483); experiment: peptide or protein array; details: both partners purified
T1 construct: DDX49, human; array proteins are said to come from full-length genes; source: immobilised on the Human Proteome Microarray v3.0 (HuProt array)
T1 sequence (looked up): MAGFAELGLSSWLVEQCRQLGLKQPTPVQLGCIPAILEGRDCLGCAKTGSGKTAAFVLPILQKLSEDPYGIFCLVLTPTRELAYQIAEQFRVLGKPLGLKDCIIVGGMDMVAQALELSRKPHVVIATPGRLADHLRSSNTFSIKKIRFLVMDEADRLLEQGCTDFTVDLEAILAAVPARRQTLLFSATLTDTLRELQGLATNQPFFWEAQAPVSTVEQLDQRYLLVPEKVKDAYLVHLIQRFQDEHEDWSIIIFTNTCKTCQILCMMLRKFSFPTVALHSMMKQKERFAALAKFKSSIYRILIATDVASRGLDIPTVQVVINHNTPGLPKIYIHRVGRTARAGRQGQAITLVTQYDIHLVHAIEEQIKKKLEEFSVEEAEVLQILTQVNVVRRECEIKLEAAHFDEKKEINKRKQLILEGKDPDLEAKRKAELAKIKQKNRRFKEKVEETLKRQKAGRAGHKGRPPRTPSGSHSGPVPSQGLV

[2] = target: T2, PLEK on the HuProt array (human, UniProt P08567 1-350); experiment: peptide or protein array; details: both partners purified
T2 construct: PLEK (pleckstrin), human; array proteins are said to come from full-length genes; source: immobilised on the Human Proteome Microarray v3.0 (HuProt array)
T2 sequence (looked up): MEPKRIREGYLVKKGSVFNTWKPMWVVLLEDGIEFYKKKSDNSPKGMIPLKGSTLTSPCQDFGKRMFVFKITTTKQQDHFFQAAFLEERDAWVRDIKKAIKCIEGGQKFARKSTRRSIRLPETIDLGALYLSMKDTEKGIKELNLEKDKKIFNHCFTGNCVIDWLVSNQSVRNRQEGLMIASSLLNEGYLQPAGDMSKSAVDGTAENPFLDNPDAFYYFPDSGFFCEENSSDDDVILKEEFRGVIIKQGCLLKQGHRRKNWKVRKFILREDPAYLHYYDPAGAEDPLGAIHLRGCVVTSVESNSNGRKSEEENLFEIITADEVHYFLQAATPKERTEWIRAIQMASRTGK

B1: ZIKV-NS4B, N-terminal GST fusion, Cy5-labelled (natural protein)
chain: NELGWLERTKNDIAHLMGRREEGATMGFSMDIDLRPASAWAIYAALTTLITPAVQHAVTTSYNNYSLMAMATQAGVLFGMGKGMPFMHGDLGVPLLMMGCYSQLTPLTLIVAIILLVAHYMYLIPGLQAAAARAAQKRTAAGIMKNPVVDGIVVTDIDTMTIDPQVEKKMGQVLLIAVAISSAVLLRTAWGWGEAGALITAATSTLWEGSPNKYWNSSTATSLCNIFRGSYLAGASLIYTVTRNAGLVKRR
modifications: Cy5 (NHS-tethered dye), sites not stated
notes: also called SN4B; source: yeast (vector pEGH-A), purified on glutathione beads; not shown: GST, N-terminal, kept
- binding result [1]: binds

B2: ZIKV-NS2A, N-terminal GST fusion, Cy5-labelled (natural protein)
chain: GSTDHMDHFSLGVLVILLMVQEGLKKRMTTKIIMSTSMAVLVVMILGGFSMSDLAKLVILMGATFAEMNTGGDVAHLALVAAFKVRPALLVSFIFRANWTPRESMLLALASCLLQTAISALEGDLMVLINGFALAWLAIRAMAVPRTDNIALPILAALTPLARGTLLVAWRAGLATCGGIMLLSLKGKGSVKKNLPFVMALGLTAVRVVDPINVVGLLLLTRSGKR
modifications: Cy5 (NHS-tethered dye), sites not stated
notes: source: yeast (vector pEGH-A), purified on glutathione beads; not shown: GST, N-terminal, kept
- binding result [2]: binds
